Experimental data taken from paper PMC3978094.
Where two headings read alike, the source gives them in different places.

Assays:
[1] = molecular target: T1, GATA3 DBD (N- and C-finger) (human, UniProt P23771-2 260-370); test: SPR
[2] = molecular target: T1, GATA3 DBD (N- and C-finger); test: SPR; remark: listed apart in the source
[3] = molecular target: T1, GATA3 DBD (N- and C-finger); test: crystal structure
[4] = molecular target: T1, GATA3 DBD (N- and C-finger); test: crystal structure; remark: listed apart in the source

B1: palindromic GATA site SPR probe (dsDNA)
DNA 1: CTCCCGCTCGCTATCAGATAAGGCCTTAT
DNA 2: ATAAGGCCTTATCTGATAGCGAGCGGGAG
Kd [1]: ~6 nM

B2: single GATA site SPR probe (dsDNA)
DNA 1: CTCCCGCTCGCTCAGAGATAAGGCCTTAT
DNA 2: ATAAGGCTTTATCTCTGAGCGAGCGGGAG
Kd [2]: ~60 nM

B3: Complex 1 palindromic GATA site, 1-bp spacer, 20-mer (dsDNA)
DNA 1: AATGTCCATCTGATAAGACG
DNA 2: CGTCTTATCAGATGGACATT
binding result [3]: binds

B4: Complex 2/3 palindromic GATA site, 3-bp spacer, 20-mer (dsDNA)
DNA 1: TTCCTAAATCAGAGATAACC
DNA 2: GGTTATCTCTGATTTAGGAA
binding result [4]: binds
